Test results: doi:10.1101/2024.01.26.576347

Columns and labels:
[1] = molecular target: β-tubulin (human (endogenous in VTC-001 and VTC-037 GSCs)) (UniProt P07437); assay: cellular thermal shift assay
[2] = molecular target: α-tubulin (human (endogenous in VTC-037 GSCs)) (UniProt P68363); assay: cellular thermal shift assay
α-tubulin (human (endogenous in VTC-037 GSCs)), sequence (P68363 whole entry): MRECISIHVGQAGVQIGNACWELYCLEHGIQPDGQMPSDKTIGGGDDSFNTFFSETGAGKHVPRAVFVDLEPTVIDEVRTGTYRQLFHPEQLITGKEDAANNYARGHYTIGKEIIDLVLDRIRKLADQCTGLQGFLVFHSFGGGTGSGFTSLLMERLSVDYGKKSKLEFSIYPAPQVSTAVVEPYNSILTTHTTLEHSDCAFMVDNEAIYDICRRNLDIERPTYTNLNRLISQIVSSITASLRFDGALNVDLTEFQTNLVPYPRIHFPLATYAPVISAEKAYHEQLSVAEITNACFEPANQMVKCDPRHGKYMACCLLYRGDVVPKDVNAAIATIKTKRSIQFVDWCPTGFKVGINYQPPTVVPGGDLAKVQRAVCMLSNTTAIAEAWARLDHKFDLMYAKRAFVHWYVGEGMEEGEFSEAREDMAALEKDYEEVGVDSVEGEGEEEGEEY

- EC50 [1]: 7.9 nM
- EC50 [2]: 8.4 nM
Substance: JM2 (juxtamembrane 2), Cx43 mimetic peptide (from UniProt P17302 231-245)
